Changes are numbered by the printed parent chain. Numbers in names are those of the source.
B1: Gal3C: carbohydrate recognition domain of human galectin-3, residues A111 to E252; SEQ ID NO: 13 (protein)
chain: MAGPLIVPYNLPLPGGVVPRMLITILGTVKPNANRIALDFQRGNDVAFHFNPRFNENNRRVIVCNTKLDNNWGREERQSVFPFESGKPFKIQVLVEPDHFKVAVNDAHLLQYNHRVKKLNEISKLGISGDIDLTSASYTMILEHHHHHH
B2: Gal3C[T243C, K139I, K196I]: Gal3C[T243C] variant with lysines K139 and K196 replaced by isoleucines (protein)
chain: MADNFSLHDALSGSGNPNPQGWPGAWGNQPAGAGGYPGASYPGAYPGQAPPGAYPGQAPPGAYPGAPGAYPGAPAPGVYPGPPSGPGAYPSSGQPSATGAYPATGPYGAPAGPLIVPYNLPLPGGVVPRMLITILGTVIPNANRIALDFQRGNDVAFHFNPRFNENNRRVIVCNTKLDNNWGREERQSVFPFESGIPFKIQVLVEPDHFKVAVNDAHLLQYNHRVKKLNEISKLGISGDIDLCSASYTMI
B3: Gal3C[T243C,K139I,K196I,K199I]: Gal3C[T243C] variant with lysines K139, K196 and K199 replaced by isoleucines (protein)
chain: B2 chain with K199I

Assays:
[1] = Variable temperature circular dichroism (CD) thermal unfolding; assay type: physicochemical; conditions: for Tm1 ± StDev: normalized CD at 220 nm vs. temperature, 3 replicates averaged, ramp 30-90° C. at 1° C. per minute; for thermal unfolding behaviour / formation of unfolding intermediate: result in words, for polymer conjugates the selected SEC fractions; for Tm2 ± StDev: second unfolding transition, cells printed as ND with footnote b
Experimental: CD spectroscopic data were recorded with an Applied Photophysics™ Chirascan spectrophotometer equipped with a Quantum Northwestern Peltier temperature control device and operating with Chirascan v4.7.0 and Pro-Data™ Viewer software. Samples were prepared in PBS at final concentrations of 10 μM. All samples were contained in 2 mm tapered quartz cuvettes, and a temperature probe was inserted through the cuvette cap to monitor the sample temperature in real time. The following parameters were used for constant temperature experiments: CD signal measured in millidegrees, bandwidth of 1.0 nm, wavelength scan from 200-280 nm, step size of 2.0 nm. Spectra were background subtracted against the sample buffer. For thermal unfolding experiments, a linear thermal ramp was applied from 30° C. to 90° C. at 1° C. per minute. All spectra were measured in triplicate, and data were normalized to account for slight differences in protein concentration.
To calculate melting temperatures of unconjugated Gal3C, Gal3C[T243C], and Gal3C[T243C] variants containing lysine replacements, the normalized data were fit to a Boltzmann sigmoidal function in Origin v8.5. For the data fitting, no parameters were fixed, and the ‘x’ parameter defined as the center of the data was interpreted as the melting temperature (Tm). Variable temperature CD data of PEGylated Gal3C[T243C] and Gal3C[T243C] variants were fit with a sum of two Boltzmann sigmoidal functions, as shown below:
where ‘A1’, ‘A2’, and ‘A3’ represent three plateaus of the CD signal, ‘dx1’ and ‘dx2’ are the change in x between the plateaus for each melting transition, and ‘x1’ and ‘x2’ are the two Tm values extracted by the fit for the first and second unfolding transitions, respectively. Because the third plateau, A3, occurred at temperatures higher than the experimentally accessible range, this value was estimated. A single wavelength for plotting on the y-axis was selected by calculating the wavelength of greatest CD signal change for each PEGylated construct.
To record a CD spectrum of Gal3C[T243C] with free PEG, a stock solution of methoxy-PEG (mPEG) in 1×PBS was added immediately before the experiment to a solution containing protein (20 μM, 1 ×PBS) to a final concentration of 22 μM mPEG. All thermal melt parameters were the same as listed in the above described experiments.
CD spectroscopic data were recorded with an Applied Photophysics Chirascan spectrophotometer equipped with a Quantum Northwestern Peltier temperature control device and operating with Chirascan v4.7.0 and Pro-Data Viewer software, following procedures used in our previous study.^4 Spectra were background subtracted against the sample buffer. For thermal unfolding experiments, a linear thermal ramp was applied from 30° C. to 90° C. at 1° C. per minute with samples concentrated to 10 μM in PBS. All spectra were measured in triplicate, and data were normalized to account for slight differences in protein concentration.
Full wavelength (200-280 nm) CD spectra for each construct (FIG. 43) were used to calculate a wavelength of greatest change (222 or 224 nm) to create single wavelength CD vs. temperature plots (FIG. 30H-J and FIG. 31F-G). The single wavelength CD signal vs. temperature plot of Gal3C[T243C] used data acquired at 220 nm, which was the wavelength of greatest change for the unmodified protein. To calculate melting temperatures, the normalized data were fit to a Boltzmann sigmoidal function in Origin v8.5. For the data fitting, no parameters were fixed, and the ‘x’ parameter defined as the center of the data was interpreted as the melting temperature (Tm).

[2] = tested on: breast cancer; conditions: breast cancer animal models; cited from earlier work
[3] = Equilibrium binding of LacNac, intrinsic tryptophan fluorescence; conditions: ligand LacNac; average ± standard deviation of 3 replicated experiments; PBS; read-out: Kd (equilibrium binding constant)
Experimental: (§1) Equilibrium binding data were recorded using a protocol adapted from a previous procedure from Restuccia, et al (38). Intrinsic tryptophan fluorescence was monitored using a Cary Eclipse™ Fluorescence Spectrophotometer (Agilent) operating with Cary Eclipse™ WinFLR software version 1.2 in ‘Scan Mode’. The instrument method parameters were as follows: excitation wavelength was 280 nm, the acquisition range was from 290 nm to 440 nm and the photomultiplier tube sensitivity was set to ‘medium’. Samples were prepared at final concentrations of 1 μM for Gal3C[T243C] or 5 μM Gal3C[T243C]-PEG in 800 ∥L, in PBS for each titration. Samples were pipetted into 0.7×0.7 cm quartz cuvettes with a micro stir bar. Each new experiment was first zeroed against PBS to remove the small background signal from the buffer. […]
The binding affinity and specificity of Gal3C[T243C]-PEG was compared with Gal3C[T243C] and Gal3C (see FIG. 1C, FIG. 9 and FIG. 10) via an inherent tryptophan fluorescence assay optimized to ensure equilibrium binding conditions. Binding of lactose or LacNac quenches the fluorescence of W181, located adjacent to the bound sugar in the crystal structure of Gal3C, thus permitting direct measurement of ligand Kd values. […]

[4] = Equilibrium binding of lactose, intrinsic tryptophan fluorescence; conditions: ligand lactose; average ± standard deviation of 3 replicated experiments; PBS; read-out: Kd (equilibrium binding constant)
Experimental: as §1
The binding affinity and specificity of Gal3C[T243C]-PEG was compared with Gal3C[T243C] and Gal3C (see FIG. 1C, FIG. 9 and FIG. 10) via an inherent tryptophan fluorescence assay optimized to ensure equilibrium binding conditions. Binding of lactose or LacNac quenches the fluorescence of W181, located adjacent to the bound sugar in the crystal structure of Gal3C, thus permitting direct measurement of ligand Kd values.

Kd [3] [µM] | Kd [4] [µM] | Molecule | Tm1 ± StDev [1] [°C] | Tm1 ± StDev ([1]; listed as Gal3C[T243C,K139I]) [°C] | thermal unfolding behaviour / formation of unfolding intermediate [1] | Tm2 ± StDev [1] | Tm / Tm1 ([1]; values of Summary of Results, Tm for unconjugated protein, Tm1 for PEG conjugate) [°C] | tumor growth [2] | fitted melting temperature (Tm) ([1]; FIG. 13, normalized CD intensity at 220 nm, Boltzmann sigmoidal fit) [°C] | Tm1 ± StDev ([1]; listed as Gal3C[T243C,K139I,K196I]) [°C]
– | – | Gal3C[T243C, K139I]: Gal3C[T243C] variant with lysine K139 replaced by isoleucine | 52.5 ± 0.4 | 52.5 | cooperative one step unfolding | ND^b (Higher than detectable by instrument (>90° C.)) | 52.7 | – | – | –
231 ± 32.3 | 529 ± 125 | B1 | 58.8 ± 0.6 | – | – | – | – | inhibiting tumor growth | 58.4 | –
– | – | B2 | 60.5 ± 0.6 | – | cooperative one step unfolding | ND^b (Higher than detectable by instrument (>90° C.)) | – | – | – | 60.5
– | – | B3 | – | – | significantly altered unfolding profile | – | – | – | – | –

From patent US20240100174A1, “PROTEIN-PEG INTERACTIONS THAT REDIRECT THE THERMAL UNFOLDING PATHWAY OF PEGYLATED HUMAN GALECTIN-3C” (UNIVERSITY OF FLORIDA RESEARCH FOUNDATION, INCORPORATED, priority 2022, published 2024)
